{
  "source": "paper PMC7933334",
  "about": "“The methyltransferase SETD2 couples transcription and splicing by engaging mRNA processing factors through its SHI domain” (Nature Communications, 2021)",
  "binders": {"B1": {"name": "FLAG-SETD2 SHI (2114–2263) (domain or fragment, human, UniProt Q9BYW2 2114-2263, looked up)", "chain": "NKLSTEERRKLFEQEVAQREAQKQQQQMQNLGMTSPLPYDSLGYNAPHHPFAGYPPGYPMQAYVDPSNPNAGKVLLPTPSMDPVCSPAPYDHAQPLVGHSTEPLSAPPPVPVVPHVAAPVEVSSSQYVAQSDGVVHQDSSVAVLPVPAPG", "notes": "The methods say that proteins were eluted with either glutathione or AcTEV protease; source: E. coli Rosetta 2 (DE3) pLysS, purified (glutathione magnetic beads)"}},
  "biological_target": "T1, GST-His-hnRNP L RRM2 (162–321) (human, UniProt P14866 162-321)",
  "T1 construct": "bait of the GST pull-down; source: E. coli Rosetta 2 (DE3) pLysS, purified (glutathione magnetic beads)",
  "T1 sequence (looked up)": "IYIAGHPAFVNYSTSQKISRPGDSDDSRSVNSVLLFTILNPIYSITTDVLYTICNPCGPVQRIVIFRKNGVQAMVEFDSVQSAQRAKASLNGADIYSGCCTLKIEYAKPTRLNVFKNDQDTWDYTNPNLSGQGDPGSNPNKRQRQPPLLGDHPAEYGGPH",
  "assay": "pull-down; GST pull-down with recombinant proteins purified from bacteria; GST-His-hnRNP L segments as baits, FLAG-SETD2 fragments as preys; RNase included in the binding assay; western blot with anti-His and anti-FLAG",
  "details": "both partners purified",
  "data": [
    {"binder": "B1", "values": [
      {"measurement": "binding result", "result": "binds"}
    ]}
  ]
}
